Measured values: publication PMC5995969, “Structural basis for the regulation of human 5,10-methylenetetrahydrofolate reductase by phosphorylation and S-adenosylmethionine inhibition” (Nature Communications, 2018)

Legend:
[1] = test system: NC(=O)C1=CN([C@@H]2O[C@H](COP(=O)(O)OP(=O)(O)OC[C@H]3O[C@@H](n4cnc5c(N)ncnc54)[C@H](OP(=O)(O)O)[C@@H]3O)[C@@H](O)[C@H]2O)C=CC1; test: purified protein; settings: FAD catalytic domain; binding site shared with CH2-THF, next to FAD; 46.0 °C
[2] = test system: Nc1nc2c(c(=O)[nH]1)N1CN(c3ccc(C(=O)N[C@@H](CCC(=O)O)C(=O)O)cc3)CC1CN2; test: purified protein; settings: FAD catalytic domain; binding site shared with NAD(P)H, next to FAD; 46.0 °C

“5,10-methylenetetrahydrofolate reductase (MTHFR) (Homo sapiens)” gave a Km [1] of 23.5 µM and a Km [2] of 22.4 µM.
